Results on 16 sequences are retold here after the nanobody polyreactivity screen of Harvey et al. (2022).

This data set in a line: yeast display, Sf9 membrane polyspecificity reagent, FACS + sequencing; frameworks hold sequencing errors. In short, it runs like this:
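Polyreactivity labels are assigned by the sorting gate from which each nanobody was recovered. The gates were low and high (top ~1%), set on anti-HA fluorescence for expression and streptavidin fluorescence for reagent binding. Before sorting, galactose-induced (36–48 hours) yeast display cells were stained for 1 hour at 4 °C with 10% biotinylated, detergent-solubilized Sf9 membrane reagent.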
For the sequence “QVQLVESGGGLVEAGGSLRLSCAASGRTFQYYPMGWYRQAPGKERDFVAAITRTGARTYYADSVKGRFTISRDNAKNTVYLQMYSLKPEDTAVYYCAISLTFYSWRDYGYWGQGSQVTVSS”, the “polyreactivity (PSR sort gate)” value is on record as “high polyreactivity”.

In the case of “QVHLVESGGGLVQAGGSLRLSCAACGRTFRSNALGWYSQAPGTEREFVAALSGRGGITYFADSVTGRFSISRDNAKNTVYLQMNSLKPEDTAVDYCNRDVKFHDYVYVTGINSPGYNYWGQGTQVTVSS”, the “polyreactivity (PSR sort gate)” value is “low polyreactivity”.

On to “QVQLVESGGGLVQAGGSLRLSCAASGSTFNHYAMGWYRQAPGKDRELVAAITKSGGSTYADSVKGRFTISRDNAKNSVYLQMNSLKPEDTAVYFCAAGRRKYGTKGRGDYWGQGTQVTVSS”, for which the “polyreactivity (PSR sort gate)” value is on record as “low polyreactivity”.

With “QVQLVEAGGGLVQAGGSLRLSCGASGRIFQSNAMGGYRLAPGKERELVAAISKSGGSTYYADSVKGRFTISRDNAKNTVYLQMNSLKPEDPAVYYCAAYPPRRMYYWGQGTQVTVSS”, the “polyreactivity (PSR sort gate)” value is recorded as “high polyreactivity”.

For “QVQLVESGGGLVQAGGSLRLSCAASGSTFYYYTMGWSRQAPGKERELVAAITYSGGSTRYADSVKGRFTISRDNAKNTVYLQMNSLKPEDTAVYYCAAELTEWTNGFDYWGQGTQVTVSS”, the “polyreactivity (PSR sort gate)” value was “high polyreactivity”.

With “QVQLQESGGGLVQAGGVLRLSCAASGTISGPHVMGWYRQAPGKEREFVAAINDGANTYYADNVKGRFTISRDNAKNTVYLQMNILKPEDTAVYYCAAVFYGDIGHEYWGQGTQVTVSC”, the “polyreactivity (PSR sort gate)” value was “low polyreactivity”.

With “QVQLVESGGGLVQAGGSLRLSCAASGFIFYRYARGWYRQAPGKERELVAVISRGGNTYYADSVKGRFTISRDNAKNTVYLQMNSLKPEDTAVYYCNKRLRDSYRLYYYWGQGTQVTVSS”, the “polyreactivity (PSR sort gate)” value was “high polyreactivity”.

For the sequence “QVQLVESGGGLVQAGGSLRLSCAASGIIFARYAMGWYRQAPGKERELVAAINWSGGDTYYADSVKGRFTISRDNAKNTVYLEMNSLIPEDTAVYYCSKVISYLVVLPRTERYEGDYWGQGTQVSVSS”, the “polyreactivity (PSR sort gate)” value is on record as “low polyreactivity”.

As to “QVQLVDSGGGLVQAGGSLRLSCAASGSIFYAYAMGWYRQATGKERQLLAVISRGGITNYSDSVKGRFTISRDNAKNTFFLQMNSLNPEDTAVYYCAAATSAWGYLRRYGYWGQGTQVTVSS”, the “polyreactivity (PSR sort gate)” value is listed as “low polyreactivity”.

In the case of “QVQLVESGGGLVQAGGSLRLSCAASGRIFTYYPMGWYRQAPGKQRELVAAISWNGDSTYYADSVKGRFTISRDNAKNTVYLQMNSLKPEDTAVYYCIADSFTGYDYWGQGTQVTVSS”, the “polyreactivity (PSR sort gate)” value is on record as “low polyreactivity”.

Regarding “QVQLVESGGGLVQAGGSLRLSCAASGRILASYAMGWYRQAPGKERELVAAIRYRGSTSYADSVKGRFTISRDNANNTVYLQMNSLKPEDTAVYYCNAGLEYYYWGYTWEFDYWGQGTQVTVSS”, the “polyreactivity (PSR sort gate)” value was “low polyreactivity”.

For “QVQLVESGGGLDQAGGSLRLSCAASGRILTGYAMGWYRQAPVKVRELVAAISNDTDSTHYADSVKGRFTISRDNAKKTVYLQMNSLKPEATAVYYCATDAPLQKRWRRFDYWGQGTHVTVSS”, the “polyreactivity (PSR sort gate)” value was “low polyreactivity”.

For “QVQLVESGGGLVQAGGSLRLSCDASGRTFLYYAMGWSRQAPGKERELVAAISSGGSTNYADSVKGRFTISRDNAKNTVYLQMNSLKPEDTAVYYCNADYTSRDTSDVIYEYDYWGQGTQVTVTS”, the “polyreactivity (PSR sort gate)” value is recorded as “low polyreactivity”.

On to “QVHLVESGGGLVQAGGSLRLTCAASGFTFSDNAMGWYRQAPGKERELVAAISRSGGRTYYADSVKGRFTISRDNAKKTVYLQMNSLKPEDTAVYYCAAYQYGMDYWGQGTQVTVSS”, for which the “polyreactivity (PSR sort gate)” value is recorded as “high polyreactivity”.

“QVQLVESGGGLVQAGGSLRLSCAASGIFGWYAMGWYRQARGKEREFVATINWSGGRTYYADSVKGRFTISRDNAKNTVYVQMNSLKPEDTAVYYCAPENYASQYDYWGQGTQVTVSS”: the “polyreactivity (PSR sort gate)” value is “low polyreactivity”.

As for “QVQLVESGGGLVQAGGSLRLSCAASGSIFTTYAMGWYRQAPGKERELVAVISRRGGSTYYADSVKGRFTISRDNAKNTVYLQMNSLTPEDTADYYCNAYTYTYHRDHTDRYNYWGQGTQVTVSS”, the “polyreactivity (PSR sort gate)” value was “high polyreactivity”.
